The results in this text go back to PMC6358605.

The target of this assay is BiP NBD (28–413) (Chinese hamster) (UniProt G3I8R9).
Chain of BiP NBD (28–413) (Chinese hamster) (G3I8R9 28-413): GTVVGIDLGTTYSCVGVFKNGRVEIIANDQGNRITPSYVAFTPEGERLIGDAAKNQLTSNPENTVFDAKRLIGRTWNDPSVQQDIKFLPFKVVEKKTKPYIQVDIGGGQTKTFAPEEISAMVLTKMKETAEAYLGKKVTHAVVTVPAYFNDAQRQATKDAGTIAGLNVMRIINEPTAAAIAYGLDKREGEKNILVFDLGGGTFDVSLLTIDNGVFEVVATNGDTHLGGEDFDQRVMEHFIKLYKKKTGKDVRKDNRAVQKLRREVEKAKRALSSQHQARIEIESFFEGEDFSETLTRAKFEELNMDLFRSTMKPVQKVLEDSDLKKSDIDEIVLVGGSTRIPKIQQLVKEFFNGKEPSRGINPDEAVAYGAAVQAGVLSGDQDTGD

In turn, “Full-length mouse MANF (wild-type) (from UniProt Q9CXI5 22-179) (natural protein)” had an inhibition of MABA-ADP release, concentration-dependent (Supplementary Fig. 4a, b) of 26.5 µM.
